According to the supplement of paper PMC11316812:
± gives the standard deviation of the averaged measurements.

What was measured:
[1] = system: MCF7; test: percentage of EdU-negative (G0-arrested) nuclei per well, 72 h; higher = more G0 arrest; conditions: reference: sequence is the full UniProt precursor, the tested protein was the secreted form or ectodomain
[2] = system: hTERT-HMEC; test: as above; conditions: reference: sequence is the full UniProt precursor, the tested protein was the secreted form or ectodomain
[3] = protein concentration 0.0214286 µM
[4] = protein concentration 0.0225 µM
[5] = protein concentration 0.214286 µM
[6] = protein concentration 0.0111429 µM
[7] = protein concentration 0.111429 µM
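Also: secreted proteins added to cultured cells, EdU pulse at the end, nuclei found by Hoechst imaging, EdU status from nuclear versus surrounding ring intensity ratio, PBS as neutral control.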

Sequence	percentage of EdU-negative [1, 3] [%]	percentage of EdU-negative [1, 4] [%]	percentage of EdU-negative [1, 5] [%]	percentage of EdU-negative ([1]; protein concentration 0.225 µM) [%]	percentage of EdU-negative [2, 3] [%]	percentage of EdU-negative [2, 4] [%]	percentage of EdU-negative [2, 5] [%]	percentage of EdU-negative ([2]; protein concentration 0.225 µM) [%]	percentage of EdU-negative [1, 6] [%]	percentage of EdU-negative [1, 7] [%]	percentage of EdU-negative [2, 6] [%]	percentage of EdU-negative [2, 7] [%]
MGPWSRSLSALLLLLQVSSWLCQEPEPCHPGFDAESYTFTVPRRHLERGRVLGRVNFEDCTGRQRTAYFSLDTRFKVGTDGVITVKRPLRFHNPQIHFLVYAWDSTYRKFSTKVTLNTVGHHHRPPPHQASVSGIQAELLTFPNSSPGLRRQKRDWVIPPISCPENEKGPFPKNLVQIKSNKDKEGKVFYSITGQGADTPPVGVFIIERETGWLKVTEPLDRERIATYTLFSHAVSSNGNAVEDPMEILITVTDQNDNKPEFTQEVFKGSVMEGALPGTSVMEVTATDADDDVNTYNAAIAYTILSQDPELPDKNMFTINRNTGVISVVTTGLDRESFPTYTLVVQAADLQGEGLSTTATAVITVTDTNDNPPIFNPTTYKGQVPENEANVVITTLKVTDADAPNTPAWEAVYTILNDDGGQFVVTTNPVNNDGILKTAKGLDFEAKQQYILHVAVTNVVPFEVSLTTSTATVTVDVLDVNEAPIFVPPEKRVEVSEDFGVGQEITSYTAQEPDTFMEQKITYRIWRDTANWLEINPDTGAISTRAELDREDFEHVKNSTYTALIIATDNGSPVATGTGTLLLILSDVNDNAPIPEPRTIFFCERNPKPQVINIIDADLPPNTSPFTAELTHGASANWTIQYNDPTQESIILKPKMALEVGDYKINLKLMDNQNKDQVTTLEVSVCDCEGAAGVCRKAQPVEAGLQIPAILGILGGILALLILILLLLLFLRRRAVVKEPLLPPEDDTRDNVYYYDEEGGGEEDQDFDLSQLHRGLDARPEVTRNDVAPTLMSVPRYLPRPANPDEIGNFIDENLKAADTDPTAPPYDSLLVFDYEGSGSEAASLSSLNSSESDKDQDYDYLNEWGNRFKKLADMYGGGEDD	23.8 ± 3.6	26.2 ± 3.6	26.8 ± 1.9	28.91 ± 0.16	5.09 ± 0.58	4.93 ± 0.37	6.74 ± 0.63	23.4 ± 1.1	–	–	–	–
MDPKGLLSLTFVLFLSLAFGASYGTGGRMMNCPKILRQLGSKVLLPLTYERINKSMNKSIHIVVTMAKSLENSVENKIVSLDPSEAGPPRYLGDRYKFYLENLTLGIRESRKEDEGWYLMTLEKNVSVQRFCLQLRLYEQVSTPEIKVLNKTQENGTCTLILGCTVEKGDHVAYSWSEKAGTHPLNPANSSHLLSLTLGPQHADNIYICTVSNPISNNSQTFSPWPGCRTDPSETKPWAVYAGLLGGVIMILIMVVILQLRRRGKTNHYQTTVEKKSLTIYAQVQKPGPLQKKLDSFPAQDPCTTIYVAATEPVPESVQETNSITVYASVTLPES	–	24.3 ± 0.12	–	23.1 ± 0.27	–	5.0759 ± 0.002	–	5.04 ± 0.53	–	–	–	–
MWAPRCRRFWSRWEQVAALLLLLLLLGVPPRSLALPPIRYSHAGICPNDMNPNLWVDAQSTCRRECETDQECETYEKCCPNVCGTKSCVAARYMDVKGKKGPVGMPKEATCDHFMCLQQGSECDIWDGQPVCKCKDRCEKEPSFTCASDGLTYYNRCYMDAEACSKGITLAVVTCRYHFTWPNTSPPPPETTMHPTTASPETPELDMAAPALLNNPVHQSVTMGETVSFLCDVVGRPRPEITWEKQLEDRENVVMRPNHVRGNVVVTNIAQLVIYNAQLQDAGIYTCTARNVAGVLRADFPLSVVRGHQAAATSESSPNGTAFPAAECLKPPDSEDCGEEQTRWHFDAQANNCLTFTFGHCHRNLNHFETYEACMLACMSGPLAACSLPALQGPCKAYAPRWAYNSQTGQCQSFVYGGCEGNGNNFESREACEESCPFPRGNQRCRACKPRQKLVTSFCRSDFVILGRVSELTEEPDSGRALVTVDEVLKDEKMGLKFLGQEPLEVTLLHVDWACPCPNVTVSEMPLIIMGEVDGGMAMLRPDSFVGASSARRVRKLREVMHKKTCDVLKEFLGLH [Q8TEU8]	–	–	–	–	–	–	–	–	25.8 ± 3	28.02 ± 0.15	5.48 ± 1.1	6.03 ± 0.2
MWQLLLPTALLLLVSAGMRTEDLPKAVVFLEPQWYSVLEKDSVTLKCQGAYSPEDNSTQWFHNENLISSQASSYFIDAATVNDSGEYRCQTNLSTLSDPVQLEVHIGWLLLQAPRWVFKEEDPIHLRCHSWKNTALHKVTYLQNGKDRKYFHHNSDFHIPKATLKDSGSYFCRGLVGSKNVSSETVNITITQGLAVSTISSFSPPGYQVSFCLVMVLLFAVDTGLYFSVKTNI	–	25.6 ± 2.5	–	25.5 ± 3.6	–	4.18 ± 0.071	–	4.98 ± 1.1	–	–	–	–
MVWKWMPLLLLLVCVATMCSAQDRTDLLNVCMDAKHHKTKPGPEDKLHDQCSPWKKNACCTASTSQELHKDTSRLYNFNWDHCGKMEPACKRHFIQDTCLYECSPNLGPWIQQVNQSWRKERFLDVPLCKEDCQRWWEDCHTSHTCKSNWHRGWDWTSGVNKCPAGALCRTFESYFPTPAALCEGLWSHSYKVSNYSRGSGRCIQMWFDSAQGNPNEEVARFYAAAMHVNAGEMLHGTGGLLLSLALMLQLWLLG	–	28.59 ± 0.11	–	27.6 ± 2.5	–	4.38 ± 0.49	–	5.92 ± 0.29	–	–	–	–
